In patent US20210355220A1 (TIKCRO TECHNOLOGIES, published 2021):

Columns and labels:
[1] = target: T1, human CTLA-4 expressed on cells (human, UniProt P16410 36-223); experiment: flow cytometry on HEK293-hCTLA-4 cells, reference tremelimumab
T1 construct: whole, on cells; On stably or transiently transfected HEK293 cells; also called hCTLA-4; HEK293-hCTLA-4 cells
Experimental: To test the binding of antibodies to CTLA-4 under more physiological conditions, the binding of CTLA-4 antibodies to cell-surface CTLA-4 was tested. […] The surface expression of hCTLA-4 in the obtained cell line was tested using a commercial anti-CTLA-4 antibody and compared to the parent cell line (HEK293 without transfection). […] The anti-CTLA-4 antibodies were incubated in serial dilution concentrations with the HEK293-hCTLA-4 cells for 1 hour on ice. Following a wash step, an anti-human antibody conjugated to ALEXA FLUOR® 647® was added for an additional hour. The cells were washed, and propidium iodide (PI) was added to exclude dead cells. The fluorescent signal was measured using FACS and analyzed. Dead cells were removed based on the PI signal. The population was gated based on forward and side scatter (FSC and SSC) parameters, and doublets were removed. The Median Fluorescent Intensity (MFI) of the appropriate channel was calculated for the live single cells from each group. The MFI was plotted versus antibody concentration in Prism software (V6.01) and kinetic parameters were obtained using a curve fit dose response function with four parameters. […] The lower EC₅₀ values indicate increased binding affinity to cell surface hCTLA-4.

[2] = target: T1, human CTLA-4 expressed on cells; experiment: cell-based or functional assay

T1 sequence (P16410 36-223): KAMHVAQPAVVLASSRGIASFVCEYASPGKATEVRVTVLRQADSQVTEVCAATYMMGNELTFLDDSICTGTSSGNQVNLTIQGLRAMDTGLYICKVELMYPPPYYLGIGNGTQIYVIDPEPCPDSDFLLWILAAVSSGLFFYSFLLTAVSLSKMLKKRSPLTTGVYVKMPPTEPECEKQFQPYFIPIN

B1: Ab55h (antibody, V domains shown)
VH: QVQLQESGPGLVKPSETLSLTCAVSGYSISGDYYWGWIRQPPGKGLEWIGSIYHSGYTYYNPSLKSRVTISVDTSKNQFSLKLSSVTAADTAVYYCARDSGWYVIAFDYWGQGTLVTVSS
VL: EIVMTQSPATLSVSPGERATLSCRASQSVSSNLAWYQEKPGQAPRLLIYGASTRATGIPARFSGSGSGTEFTLTISSLQSEDFAVYYCQQYNNWPPLTFGGGTKVEIK
notes: Human form, compared with an hIgG1 isotype control
[1]
  Ratio Tremelimumab:Ab55h of EC50: 7.5 fold
[2]
  SHP1 reporter IC50: 0.059 nM
  SHP1 reporter IC50, Ratio Ab55h:Ipilimumab: 4.5 fold
